From patent publication US20130177981A1 (WISCONSIN ALUMNI RESEARCH FOUNDATION, published 2013)
Where two headings read alike, the source gives them in different places. [ ]: non-standard residue; d: D form. APC = trans-3-aminopyrrolidine-4-carboxylic acid; ACPC = trans-2-aminocyclopentanecarboxylic acid; β3hT = C[C@@H](O)[C@H](N)CC(=O)O; β3hE = N[C@@H](CCC(=O)O)CC(=O)O

Assays:
gp41-5 [1] = target: T1, gp41-5 (HIV); experiment: competition FP; displacement of Flu-C38 from gp41-5
T1 construct: also called gp41-5 protein construct; five-helix bundle protein

gp41-5 [2] = target: T1, gp41-5; experiment: as above; remark: listed apart in the source
Protocol: Competition fluorescence polarization assays were conducted in black 96-well plates. […] A second stock plate was prepared containing serial dilutions of peptide inhibitors in DMSO. The peptide stock solutions were transferred to the assay plate (1 μL per well). […] All experimental conditions were carried out in duplicate, and each peptide was assayed in 2-3 independent experiments. Data analysis was carried out in GraphPad Prism. Raw mP data from each experiment were fit to a sigmoidal dose response and normalized to the resulting parameters for the top and bottom of the curve. All experiments included at least one compound showing complete inhibition at the highest concentrations tested. Normalized data from multiple independent runs of the each oligomer were combined and globally fit to an exact analytical expressions for FP competitive binding with Kᵢ as the only floating parameter.

Binder	Ki (gp41-5 [1])	Ki (gp41-5 [2])
Ac-[β3hT]TWE[ACPC]WD[APC]AIA[β3hE]YA[ACPC]RIE[ACPC]LI[APC]AAQEQQEKNEAALREL-NH2 (not fully specified, also called compound 15) [chimeric α+α/β foldamer 15]	0.2 nM	
Ac-TTWEAWDRAIAEYA[ACPC]RIE[ACPC]LI[APC]AAQ[β3hE]QQ[β3hE]KNE[ACPC]AL[APC]EL-NH2 (not fully specified, Made from 7 by replacing two β3-hArg residues with APC) [chimeric CHR α/β-peptide 8]		0.3 nM
Ac-TTWEAWDRAIA[β3hE]YA[ACPC]RIE[ACPC]LI[APC]AAQ[β3hE]QQ[β3hE]KNE[ACPC]AL[APC]EL-NH2 (not fully specified, the difference must lie in β3-residues whose bold type is lost; also called compound 13; peptide 13) [chimeric α+α/β foldamer 13]	0.8 nM	
Ac-[β3hT]TWE[ACPC]WD[APC]AIA[β3hE]YAARIEALIRAAQ[β3hE]QQ[β3hE]KNE[ACPC]AL[APC]EL-NH2 (not fully specified, also called compound 14) [chimeric α+α/β foldamer 14]	1.4 nM	
Ac-TTWEAWD[APC]AIA[β3hE]YA[ACPC]RIE[ACPC]LI[APC]AAQ[β3hE]QQ[β3hE]KNE[ACPC]AL[APC]EL-NH2 (not fully specified, also called compound 12; peptide 12) [chimeric α+α/β foldamer 12]	8 nM	
